Results: patent US20100021474

Target: Kunitz domain inhibitor KD1 derived from hepatocyte growth factor activator inhibitor-1B (HAI-1B) (UniProt O43278)
Sequence (O43278 246-303): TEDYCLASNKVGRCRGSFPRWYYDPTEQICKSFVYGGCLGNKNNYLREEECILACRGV

soluble form of HEPSIN comprising the entire extracellular domain (human HEPSIN Arg45-Leu417, His-tagged), sequence (chain, as listed by the source): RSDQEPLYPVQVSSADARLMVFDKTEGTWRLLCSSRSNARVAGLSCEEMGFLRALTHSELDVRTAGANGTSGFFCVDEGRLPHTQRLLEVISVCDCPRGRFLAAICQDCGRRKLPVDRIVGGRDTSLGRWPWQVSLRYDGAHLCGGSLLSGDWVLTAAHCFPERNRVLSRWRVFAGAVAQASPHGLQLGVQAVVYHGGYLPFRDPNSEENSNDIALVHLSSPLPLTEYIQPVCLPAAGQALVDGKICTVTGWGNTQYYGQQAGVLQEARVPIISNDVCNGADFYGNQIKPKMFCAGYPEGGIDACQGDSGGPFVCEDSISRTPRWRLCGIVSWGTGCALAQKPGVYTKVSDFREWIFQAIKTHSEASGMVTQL

soluble form of HEPSIN comprising the entire extracellular domain (human HEPSIN Arg45-Leu417, His-tagged)
HEPSIN activity in a chromogenic substrate assay with the para-nitroanilide substrate S2366: completely inhibited HEPSIN activity at a concentration of 50 nM
